assay: soluble on expression in E. coli; label from the status in PepcDB or PDB records

Sequence	soluble on expression in E. coli
MEYTSIADTGIEASRIGLGTWAIGGTMWGGTDEKTSIETIRAALDQGITLIDTAPAYGFGQSEEIVGKAIKEYMKRDQVILATKTALDWKNNQLFRHANRARIVEEVENSLKRLQTDYIDLYQVHWPDPLVPIEETAEVMKELYDAGKIRAIGVSNFSIEQMDTFRAVAPLHTIQPPYNLFEREMEESVLPYAKDNKITTLLYGSLCRGLLTGKMTEEYTFEGDDLRNHDPKFQKPRFKEYLSAVNQLDKLAKTRYGKSVIHLAVRWILDQPGADIALWGARKPGQLEALSEITGWTLNSEDQKDINTILENTISDPVGPEFMAPPTREEIPG	soluble
MFADTCGFMNRSPEHIFGSPEIDYSDVSTGYLEDALIESGERSKRRRLLFEDPSKSFNDDDSQNDWGLHESYSCLNSQFVTPHVNTGERISGVSYCQETISNVYESPDTSVSYDKIYVREKSPTEPSSSNCGNKNKRLITKLVYPFGLVKPGGRENDVTLNDINERILMAPSRPIRHPVGDFASRPCVSGRGPGLSGKAVVALTKIQTQGRGTITIIRTKG	soluble
MFDAKKLEQIAKQIHEAMPQPVKELGADVEQKVRQVIQGQLNKLDVVSREEFDVQTQVLLRTRQKLTELEQKMAELEAKLADK	not soluble
MFDIILEIVILLFNLLIQNLISLIKYALPYSLLPKKDLYRKKVLITGAGNGLGKLLAQKFAARGATLILWDINLQSVDELKNEIRGNQGEAHSYEVNLCDPGKIAQVGQQVINDIGKVDILVNNAGIATAKMILDSSENEINRSFDVNVKAHFYTVQQFLPAMLKDNNGHIVTIASAAGKMGSSGLADYSSTKHAAVGFHDSLVAEIMESEKNGVKTTLVCPYYVHTSMFDATGAATRFPWIFPILDTDYVVQKIFEAIETEQEFLVTPRAFYLVFAGIQILPYKAQAMVAQFFGLVQNLERFHK	not soluble
MFDLAERLSSNKSNESKLSHKLKTMLFYQTEECRSLVNESFRFDGKDEPKCVKNRDEEFRQIDLLNPPEVVIIELNASQDVVQDAQRLAHLLPSQVSVVIVGSEDAISTIRLLKEMGFYYLFWPVSKQECSDFMKHVLDNHEQHRGLMANRKSKRVAMVGVKGGVGTSLISSEVSRMLSFDKGVSTLLVDHNYHGGNLDIFMGLKQHQKRIVQKGTLISNIDGTYALGLIRKITPMLSMLAIDSDELNAQELKEYTLAVQEQALKNSSVMIEDHAHLIRNEDDIIKLLQQVDVLVLVFDATVSSLRDYNRLNQLVKKNNLDNQTRVISVLNSSRPSNSGSVSAEEIEKYSGQRATISIPYDDKAPQYVLEGLQIVKTKSAMALPLMNLVALILGEEPKQESRSFLSFFKKKG	not soluble
MFDSIRETIDYAVENNMSFADIMVKEEMELSGKSRDEVRAQMKQNLDVMRDAVIKGTTGDGVESVTGYTGHDAAKLRDYNETHHALSGYEMIDAVKGAIATNEVNAAMGIICATPTAGSSGTIPGALFKLEKTHDLTEEQMIDFLFTSALFGRVVANNASVAGATGGCQAEVGSASAMAAAAAVAIFGGSPEASGHAMALAISNLLGLVCDPVAGLVEIPCVMRNAIGSGNALISADLALAGIESRIPVDEVIEAMDKVGRNLPASLRETGLGGLAGTPTGEAIKRKIFGTAEDMVKNN	not soluble
MFERYQAGEQAVLVHLDFPDESSREDLSEFKMLVSSAGVQALTVVTGKRNTPHPRFFVGSGKAEEIRDAVHLVGANVVLFNHSLTPSQEKNIEALCECRVVDRTTLILDIFAQRARTHEGKLQVELAQLRHMSSRLIRGWTHLERQKGGIGLRGPGETQLETDRRLLRERMVNIRKRLGKVEVQRQQGRRARTRAELPTLSLVGYTNAGKSTLFNTLTQSDVYAADQLFATLDPTLRKIDLFGVGRVILADTVGFIRHLPHDLVAAFKATLTETREAELLLHVVDISDDRRSENIEQVEYVLKEIEANDVPQLIICNKIDNLDDIEPRIDRDDQGMPIRVWLSAQANIGTELLFTALAERLDIQVVNHQLSIPPSAGKLRGELYKLNCVTSETYDEQGHCHLEVNMPSREWERLISTKYSELVDYIEHLEHHHHHH	not soluble
MFFAIILLVHTILLPSTLLYQCATAKRPANQRKSQRSTKSRKSSRRSRRRNGRSRKSSRSGKSSRSSKSGRSSKSSNSTKTTGSKSSKSSRSQRSNKSNKMVTNPKGFSDRKIRAAILADQKAAADAVKSQKLSSNNSSEKQLNAHNDNKISYVNVRVIPHELIFPPIGGMKHVRVKNSTGKPIAYMAKCSDNILFRINPVYGIIDTDRDAQINILRENGAAKHDKLVIVTTVHHDANKTAQHTFSQLNQGIENPNYNVNVVPLLTQ	soluble
MFFDDTYLDYKARVSYSLFCAKDFNETAAFIKANRILMTSTELAAYMLKPENYKYAIIARIKNSMVGIVLFTDFESEVFINHLYVSPIHRFKGIGSNLLKELKAFMGQRTVSYIDTSNNYMPWMEVLDVSKKAAVINQLGSFYKCSK	not soluble
MFFRSKKTHFLEVDKFWTPEKIVRSSEVKRINKNTEISTQESTSTSTEYQFATLEDFQNAMAEKDQNIKKLKEEVEKLIDEQEDEIILAEMQFEIFQIKAETEARRLKKLLIMRNEDFSILKTKYEDLQKQFYDLSPYPVNGYGGILIGDETPKQEKLMDQLLDKLKVLNDGDYYDIFHLLETIDKIIVTFSLYFKDPILITKKMEDNKQIIQKLEDEVDYLTKNLESLNPSQLVTSLENKDDYLLVTVEFQKRKNILFSELKKKNEEIKMLQESFNVYQKDSIEKVMEKFLELQHQNLTVFSVDDTNSISTELNNDRNVAKNDKSEGVESLMLENFNNSLKIALNSVKREISKQNVTIKTDEDMIKDMKKTIDSNENMIKMLADELSWKTKDCQVKVSALENQIFDKNDEIVKLKSHVSTESGNSPKLERNVRELTLKISSETSSQGTSRTYPHLEQEILTFHSEKISDPSEEANQEVREFPLEQTLEKLKLEQTESLVAILEQPGGLKTMRNDPQWLQVVDHFCDYVRKIEKLEENVKEEQMNTEMIMKERTREITELYYQKRVLEKKISEQFKEIQQVKSEISRVYEANIQEIQKSFDIKLKLKDQIIGELEAVDEMSSNHTELSDGWSDLDIVQNTEELQ	not soluble
MFGISFSELLLVGLVALLVLGPERLPGAARTAGLWIGRLKRSFNTIKQEVEREIGADEIRRQLHNEHILSMEREAQKLLAPLTGQNPPQETPPPAAESPAPSVPTPPPTSTPAVPPADAAAPPAVAASTPPSPPSETPRNPLEHHHHHH	not soluble
MFGMSVFHSVLERLKAEQAEELTNEARGGWRGTVIGAAPGFIAESSAHAWASRGAVEQAYRALAADERSEPFSMPDYLTRTSLAEVASELALGEAETALTLAAKRRRFAAANHPDRLPVEARVNATLRMKLANMLIDEALRRIEKPTVTG	not soluble
MFHLVDFQVTIAEILIIIMRTFRIAIWNLDVIISSIVRQLFKPLTKKNYSELDDEEPMELDYP	soluble
MFISVVIPTYDRQPILEKCLRALEAQQLSASTVINEYEIVLVDDGSTDGTLDWLATHKEEFPHVRWFEQDHAGPAAARNLGVEKARGDIIIFIDSDLVVLDNFLQAHADALLQGQEKLGSDRFFTYGAVINTCNFDNPTAEPYKITDFSAAFFATGNVAIPKHWLEQAGLFDTGFQLYGWEDLELGVRLKNLGLQLIKCPAAVGYHWHPPFNLEQVPNLIEKEIQRGRMGVLFYKKHPTWEVRMMIQMTWLHRLLWGILSLNGALNENTMAPLLQWLIKSGKPQLALEIARIFLNWYNVKGVYQAYSQMQKVSLEHHHHHH	soluble
MFKRVLIANRGEIAVRAIRACRELGLKTVAIYSEADKNSLHVELADEAICIGPPDPSKSYLDIPRIMSALEVSKADAVYPGYGFLSENPKFAEIVEKSGAKFIGPRSEVLAKIGDKVLAKKVAKEVGLPLVPGSDEPLEFSEAVKLASKIGYPVVIKAAAGGGGRGIRIIRDEKELREKFPLAKKEAESAFGDGRLYIEKYVINPKHIEFQVIADEHGNVYVLGERECSIQRRHQKLIEEAPSVSVSEEKRKEISEKVAEFCKRLGYTSAGTVEFLMDEEGNFYFMEMNGRIQVEHPVTEMVTGVDIVKLQLIAAMGEEIKLEKVETNGFAIEFRINAEDPVTFIPSPGQVEKLILPGGPGVRVDTHLYQGYTVPPYYDSLLAKIIVWGNTRQEAIARGKRALGELKIEGKGLKVNTEFHLRVLDQKEFIEGKHDITFVERIMV	soluble
MFLNSLDLPGQPENSRIVVAMSGGVDSSVVAGLLKKEGYDVIGITLQLYDHGAATHRVGACCAGQDIEDARCVAETLGIPHYVLDYEERFREAVIDPFAASYAHGETPVPCIACNQTVKFADLLATARELDADALATGHYIRSRSHGAHRALFRPLDSDRDQSYFLFATTQEQIDYLRFPLGDLPKARVREMATEMGFVVANKHDSQDICFVPQGKYSDIITKLRPEAVNPGVIVHVDGQVLGKHSGIVHYTVGQRRGIGVATGEALYVVYLDVENARVIVGPREMLETHKLFLRDVNWLGDERLDNFPPDGIEMAVKVRSTRPPHLARLHYQEGVFSVDFLECENSVAPGQACVFYDGNSDGARVLGGGFVTHSERAAETEMMLKRVLCNLETTSAVASEFKTKVSYT	not soluble
MFLTKVSLLDHPESLPGYLSSLAIVEYLHEQPLEFRAPITVITGENGVGKSTLVEALAVGMRLNPSGGSRHANFGREGDIVSSLHQSLKLVRRENPRDAFFFRGETMYNVASYYEELMGEKNMHDLHKMSHGESVFAVIDRRFNNQGFFVLDEPEAGLSMLRQLELLGKLGNLARGGAQIIMATHSPILLAIPGAEILEITSSGVAKVNFEDAEAVRAAREFVADPRGTAAFLTAEEDHQ	soluble
MFPIGEQPRILKDLAGINEDVQELAISGKTKNIELLGELKIRDLWIFTVNQTQFDKIMEYVNPEILYIDEMRVENLSKLQKMSNLRRLYLGWNPKNTDLWDLSYNNNLSYLLIQAFSKLEDLSPIKDGKKLEGLFLGGAIMKTLNVKTLDPIGDLVELNELTLMNIKVQDRSLEPLMNLKRLKKLNVSNQFPMEEYAKLSVVLQNTECEFFKPYVRMESTEGKDIMMIGRKRPFLNSKIDAEKIRKYEQEFKTVQEEFRDGMK	not soluble
MFPLFPNPQTRRTMSVLSEQVDGRPPQPPSGRRGKRWLRAIAAGALLAAGGGASTQPVAQQAPQSHARKVKVLIISMFAPEAQPWIDKLGLTQAVPVPGLSIDYPSVHCNASDVCQLTTGMGKANAASSVSALIHSGQFDLSRAYFLVAGIAGIDPSQGTLGTAAWARYLVDSDLAWEIDAREVPADWPNGFIGINTQGPGQKPPLNYKTEIFRVNEALLQKALALSKGAVLDDNATARAYRANYPSAPANQPPAVVQCDTAAGNTYWHGALLGQREAAWVKLLTDGQGTYCTTQQEDNATFEALTRGSKAGLLDLQRVAVLRTASNFDRPYPGQTPYDSLVGSNSGGFVPSLNNLYLAGGPLVNDIVTRWSVWKHGVPSPLEHHHHHH	not soluble
MFPSFLRRTAAKNGSYANEISSSIIINRPAERLFDLWRKPETLPILMGHFASIEILNHTDSNWRINTPIGSLIEWQARIIDEKPGEYIHWRSLEGARVPNEGRLSFQPAASEAGTAVTLTIRYNPPGGLIGKKIGQMFDMFSRDMLTKTLYRFKKLAEDERVLEHHHHHH	not soluble
MFRMLNSSFEDDPFFSESILAHRENMRQMIRSFSEPFGRDLLSISDGRGRAHNRRGHNDGEDSLTHTDVSSFQTMDQMVSNMRNYMQKLERNFGQLSVDPNGHSFCSSSVMTYSKIGDEPPKVFQASTQTRRAPGGIKETRKAMRDSDSGLEKMAIGHHIHDRAHVIKKSKNKKTGDEEVNQEFINMNESDAHAFDEEWQSEVLKYKPGRHNLGNTRMRSVGHENPGSRELKRREKPQQSPAIEHGRRSNVLGDKLHIKGSSVKSNKKLEHHHHHH	soluble
MFRRIFDAFNFMGSDEESTAAPVDQEGQEQLIDEDGWVNFNHPTESGDSDEFAFIENPEILEMGDETTIEVEMRTTPCPEVEAIKRREEYNLAKAKTAFRNHLESVMFADPDSGKDVRTFKSTHGSGRSVPTASGSIRRLNTQSQRSKKSSGKSNDRKTHRVSDLQLADA	not soluble

Reference: the DeepSol protein solubility set
